US20220017637A1 (Hoffmann-La Roche, published 2022)

Legend:
[1] = biological target: T1, Her2 expressed on the cell surface of the human breast cancer cell line KPL-4 (human, UniProt P04626 23-1255); test: flow cytometry (MFI PE) on KPL-4 cells; R-PE F(ab')2 goat anti-human IgG Fcgamma secondary
T1 construct: endogenous Her2 of KPL-4 cells stood in the assay; also called ErbB2; human epidermal growth factor receptor-2

[2] = biological target: T2, human CD28 on CHO cells (parental cell line CHO-k1 ATCC #CCL-61, modified to stably overexpress human CD28) (human, UniProt P10747 19-220); test: flow cytometry (MFI PE) on CHOk1-huCD28 cells; R-PE F(ab')2 goat anti-human IgG Fcgamma secondary
T2 construct: The whole entry (with signal peptide) is named; also called CHOk1-huCD28; CHOk1 huCD28

[3] = biological target: T1, Her2 expressed on the cell surface of …; test: flow cytometry (MFI PE); panel title on the sheet: Binding to human Her2, KPL4; R-PE F(ab')2 goat anti-human IgG Fcgamma secondary
[4] = biological target: T2, human CD28 on CHO cells (parental cell …); test: flow cytometry (MFI PE); panel title on the sheet: Binding to human CD28, CHO-k1-huCD28; R-PE F(ab')2 goat anti-human IgG Fcgamma secondary
[5] = biological target: T2, human CD28 on CHO cells (parental cell …); test: flow cytometry (MFI PE), one-armed IgG from supernatant on CHO-k1 cells stably overexpressing human CD28; PE-conjugated goat anti-human secondary
[6] = biological target: T2, human CD28 on CHO cells (parental cell …); test: as above; remark: listed apart in the source

B1: Molecule A: Her2 (pertuzumab CLC_WT)-CD28 (SA_Variant 8) 1+1 format (bispecific antibody, human IgG1, kappa, L234A L235A)
heavy 1: not shown
light 1: QVQLVQSGAEVKKPGASVKVSCKASGYTFTSYYIHWVRQAPGQGLEWIGSIYPGNVQTNYNEKFKDRATLTVDTSISTAYMELSRLRSDDTAVYFCTRSHYGLDFNFDVWGQGTTVTVSSASVAAPSVFIFPPSDEQLKSGTASVVCLLNNFYPREAKVQWKVDNALQSGNSQESVTEQDSKDSTYSLSSTLTLSKADYEKHKVYACEVTHQGLSSPVTKSFNRGEC
heavy 2: not shown
light 2: DIQMTQSPSSLSASVGDRVTITCKASQDVSTAVAWYQQKPGKAPKLLIYSASFRYTGVPSRFSGSRSGTDFTLTISSLQPEDFATYYCQQHYTTPPTFGQGTKVEIKRTVAAPSVFIFPPSDRKLKSGTASVVCLLNNFYPREAKVQWKVDNALQSGNSQESVTEQDSKDSTYSLSSTLTLSKADYEKHKVYACEVTHQGLSSPVTKSFNRGEC
notes: only the Fc knob chain carries PG-LALA; also called P1AF6741; Her2-CD28 (P1AF6741)
[1]
  EC50 (read off the curve): 6 to 7 nM
[2]
  binding result: binds
[3]
  EC50 (read off the curve): ~3 nM

B2: Molecule D: Her2 (trastuzumab CLC)-CD28 (SA_variant 8) 1+1 (bispecific antibody, human IgG1, kappa, L234A L235A)
heavy 1: not shown
light 1: B1 light 1
heavy 2: not shown
light 2: B1 light 2
notes: huIgG1 PG-LALA CrossFab: VH/VL exchange in the CD28 Fab (knob), charged modifications in the Her2 Fab (hole); also called P1AF8338
[3]
  EC50 (read off the curve): ~3 nM
[4]
  binding result: binds

B3: Molecule B: Her2 (pertuzumab CLC)-CD28 (SA_Variant 8) 1+1 format (bispecific antibody, human IgG1, kappa, L234A L235A)
heavy 1: not shown
light 1: B1 light 1
heavy 2: EVQLVESGGGLVQPGGSLRLSCAASGFTFNDYTMDWVRQAPGKGLEWVADVNPNSGGSIVNRRFKGRFTLSVDRSKNTLYLQMNSLRAEDTAVYYCARNLGPFFYFDYWGQGTLVTVSSASTKGPSVFPLAPSSKSTSGGTAALGCLVEDYFPEPVTVSWNSGALTSGVHTFPAVLQSSGLYSLSSVVTVPSSSLGTQTYICNVNHKPSNTKVDEKVEPKSCDKTHTCPPCPAPEAAGGPSVFLFPPKPKDTLMISRTPEVTCVVVDVSHEDPEVKFNWYVDGVEVHNAKTKPREEQYNSTYRVVSVLTVLHQDWLNGKEYKCKVSNKALGAPIEKTISKAKGQPREPQVCTLPPSRDELTKNQVSLSCAVKGFYPSDIAVEWESNGQPENNYKTTPPVLDSDGSFFLVSKLTVDKSRWQQGNVFSCSVMHEALHNHYTQKSLSLSP
light 2: B1 light 2
notes: huIgG1 PG-LALA CrossFab: VH/VL exchange in the CD28 Fab (knob), charged modifications in the Her2 Fab (hole); also called P1AF8305
[3]
  EC50 (read off the curve): ~3 nM
[4]
  binding result: binds

B4: CD28(SA)_variant_15 (antibody, human IgG1, kappa, L234A L235A)
heavy: not shown
light: not shown
chain: DKTHTCPPCPAPEAAGGPSVFLFPPKPKDTLMISRTPEVTCVVVDVSHEDPEVKFNWYVDGVEVHNAKTKPREEQYNSTYRVVSVLTVLHQDWLNGKEYKCKVSNKALGAPIEKTISKAKGQPREPQVCTLPPSRDELTKNQVSLSCAVKGFYPSDIAVEWESNGQPENNYKTTPPVLDSDGSFFLVSKLTVDKSRWQQGNVFSCSVMHEALHNRFTQKSLSLSP
notes: tested from HEK supernatant, unpurified; also called P1AE3071
[5]
  binding result: binds

B5: CD28(SA)_variant_12 (antibody, human IgG1, kappa, L234A L235A)
heavy: not shown
light: DIQMTQSPSSLSASVGDRVTITCRASQNIYVWLNWYQQKPGKAPKLLIYKASNLYSGVPSRFSGSRSGTDFTLTISSLQPEDFATYYCQQGQTYPYTFGQGTKLEIKRTVAAPSVFIFPPSDRKLKSGTASVVCLLNNFYPREAKVQWKVDNALQSGNSQESVTEQDSKDSTYSLSSTLTLSKADYEKHKVYACEVTHQGLSSPVTKSFNRGEC
chain: B4 chain
notes: tested from HEK supernatant, unpurified; also called P1AE3068
[5]
  binding result: binds

B6: CD28(SA)_variant_17 (antibody, human IgG1, kappa, L234A L235A)
heavy: not shown
light: not shown
chain: B4 chain
notes: tested from HEK supernatant, unpurified; also called P1AE3073
[5]
  binding result: binds

B7: CD28(SA)_variant_31 (antibody, human IgG1, kappa, L234A L235A)
heavy: not shown
light: not shown
chain: B4 chain
notes: tested from HEK supernatant, unpurified; also called P1AE3087
[6]
  binding result: binds

B8: CD28(SA)_variant_13 (antibody, human IgG1, kappa, L234A L235A)
heavy: not shown
light: not shown
chain: B4 chain
notes: tested from HEK supernatant, unpurified; also called P1AE3069
[5]
  binding result: binds

B9: CD28(SA)_variant_16 (antibody, human IgG1, kappa, L234A L235A)
heavy: not shown
light: not shown
chain: B4 chain
notes: tested from HEK supernatant, unpurified; also called P1AE3072
[5]
  binding result: binds

B10: CD28(SA)_variant_29 (antibody, human IgG1, kappa, L234A L235A)
heavy: not shown
light: not shown
chain: B4 chain
notes: tested from HEK supernatant, unpurified; also called P1AE3085
[6]
  binding result: binds

B11: CD28(SA)_variant_27 (antibody, human IgG1, kappa, L234A L235A)
heavy: not shown
light: not shown
chain: B4 chain
notes: tested from HEK supernatant, unpurified; also called P1AE3083
[6]
  binding result: binds

B12: CD28(SA)_variant_25 (antibody, human IgG1, kappa, L234A L235A)
heavy: not shown
light: not shown
chain: B4 chain
notes: tested from HEK supernatant, unpurified; also called P1AE3081
[6]
  binding result: binds

B13: CD28(SA)_variant_26 (antibody, human IgG1, kappa, L234A L235A)
heavy: not shown
light: not shown
chain: B4 chain
notes: tested from HEK supernatant, unpurified; also called P1AE3082
[6]
  binding result: binds

B14: CD28(SA)_variant_30 (antibody, human IgG1, kappa, L234A L235A)
heavy: not shown
light: B5 light
chain: B4 chain
notes: tested from HEK supernatant, unpurified; also called P1AE3086
[6]
  binding result: binds
